The assay concerns Plux promoter. As to the kind of experiment: LuxR/Plux circuit characterization by flow cytometry (AHL transfer functions). The conditions noted are these: no AHL, IPTG=10 mM, GFP, MG1655 Pro cells (FIG. 19C). The format is cell-based, E. coli. As to the method: Overnight cultures of E. coli strains were grown from glycerol freezer stocks at 37° C. 300 rpm in 3 mL of Luria-Bertani (LB)-Miller medium (Fisher #BP1426-2), with appropriate antibiotics: carbenicillin (50 μg/ml), kanamycin (30 μg/ml), chloramphenicol (25 μg/ml). The inducers used were arabinose, isopropyl-β-D-1-thiogalactopyranoside, and AHL 3OC6HSL (Sigma-Aldrich #K3007-10MG). Where appropriate, COPYCONTROL^24 from Epicentre (Madison, Wis.) was added to overnight cultures at 1× active concentration. Overnight cultures were diluted 1:100 into 3 mL fresh LB and antibiotics and were incubated at 37° C. 300 rpm for 20 minutes. […]
Cells were then diluted 4-fold into a new 96-well plate containing fresh 1×PBS and immediately assayed using a BD LSRFORTESSA-HTS. At least 50,000 events were recorded for all data, which was then gated by forward scatter and side scatter using CYFLOGIC v.1.2.1 software (CyFlo, Turku, Finland). The geometric means of the gated fluorescence distributions were calculated by Matlab. Fluorescence values are based on geometric means of flow cytometry populations from three experiments and the error bars represent standard errors of the mean.
For each experiment, fluorescence readings were taken on a BioTek Synergy H1 Microplate reader using BioTek Gen5 software to determine the minimum and maximum expression level for cultures in each 96-well plate. […]
(In general: Flow cytometry measures light scatter and fluorescence of single cells or particles in a stream.)

B1: LuxR: quorum-sensing transcriptional activator induced by AHL, activates promoter Plux (protein, UniProt P12746 1-250, looked up)
Transcriptional activator …: MKNINADDTYRIINKIKACRSNNDINQCLSDMTKMVHCEYYLLAIIYPHSMVKSDISILDNYPKKWRQYYDDANLIKYDPIVDYSNSNHSPINWNIFENNAVNKKSPNVIKEAKTSGLITGFSFPIHTANNGFGMLSFAHSEKDNYIDSLFLHACMNIPLIVPSLVDNYRKINIANNKSNNDLTKREKECLAWACEGKSSWDISKILGCSERTVTFHLTNAQMKLNTTNRCQSISKAILTGAIDCPYFKN
For the molecule B1, the “repression of the Plux promoter in the absence of AHL” value was “no repression”.
